Reference: patent US20210054355A1 (NEW YORK UNIVERSITY, published 2021)

Experiments:
[1] = target: T1, αKlotho^ecto/ΔRBA (soluble αKlotho ectodomain lacking L544 to T565 of the KL2 β1α1 loop) (human, UniProt Q9UEF7 34-981); assay: size-exclusion chromatography of FGF23/αKlotho^ecto/ΔRBA mixture
T1 construct: the mature protein is E34 to S959; Expressed and purified like the wild type (pEF1α/myc-His A); also called α-Klotho^ecto/deltaRBA; αKlotho^ecto/ΔRBA mutant
T1 sequence: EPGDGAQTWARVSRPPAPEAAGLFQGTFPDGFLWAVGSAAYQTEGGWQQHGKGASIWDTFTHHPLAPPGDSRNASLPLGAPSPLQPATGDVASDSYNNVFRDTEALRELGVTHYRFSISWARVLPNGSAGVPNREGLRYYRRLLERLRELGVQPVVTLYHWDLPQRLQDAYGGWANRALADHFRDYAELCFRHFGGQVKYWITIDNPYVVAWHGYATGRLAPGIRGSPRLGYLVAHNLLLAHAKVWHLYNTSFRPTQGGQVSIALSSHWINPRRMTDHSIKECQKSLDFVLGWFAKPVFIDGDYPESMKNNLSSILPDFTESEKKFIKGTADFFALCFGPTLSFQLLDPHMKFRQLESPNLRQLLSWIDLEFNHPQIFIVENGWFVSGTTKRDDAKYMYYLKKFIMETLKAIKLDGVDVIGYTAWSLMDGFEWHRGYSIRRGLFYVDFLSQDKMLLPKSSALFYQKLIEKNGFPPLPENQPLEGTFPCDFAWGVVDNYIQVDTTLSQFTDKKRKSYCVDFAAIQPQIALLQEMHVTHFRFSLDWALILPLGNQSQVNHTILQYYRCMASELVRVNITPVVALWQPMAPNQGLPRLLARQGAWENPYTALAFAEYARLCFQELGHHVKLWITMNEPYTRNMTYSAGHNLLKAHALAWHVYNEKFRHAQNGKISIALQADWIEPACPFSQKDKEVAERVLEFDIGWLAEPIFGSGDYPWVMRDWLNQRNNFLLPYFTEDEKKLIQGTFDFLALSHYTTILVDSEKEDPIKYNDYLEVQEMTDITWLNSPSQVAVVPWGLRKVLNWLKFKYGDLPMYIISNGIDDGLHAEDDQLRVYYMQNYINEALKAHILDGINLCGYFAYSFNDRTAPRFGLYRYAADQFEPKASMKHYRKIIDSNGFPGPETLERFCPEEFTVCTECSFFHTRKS

[2] = target: T2, FGFR1c^ecto/ΔSLBS (FGFR1c^ecto carrying I203E) (human, UniProt P11362 142-365); assay: SEC-MALS, 1:1:1 ternary complex with FGF23 and αKlotho^ecto
T2 construct: also called FGFR1c^ΔSLBS
T2 sequence: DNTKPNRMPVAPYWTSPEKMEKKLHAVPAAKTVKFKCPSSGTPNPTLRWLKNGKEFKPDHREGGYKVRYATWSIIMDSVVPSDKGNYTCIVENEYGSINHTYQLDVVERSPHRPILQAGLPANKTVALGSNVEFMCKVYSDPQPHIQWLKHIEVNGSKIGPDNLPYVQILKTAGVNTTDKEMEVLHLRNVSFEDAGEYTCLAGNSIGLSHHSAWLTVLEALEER
Method: A Superdex 200 10/300 GL column (GE Healthcare, USA) was placed in-line between the HPLC pump (Waters 1525) and the HPLC UV (Waters 2998 Photodiode Array), laser light scattering, and refractive index detectors. Light scattering and refractive index detectors were calibrated following the manufacturer's guidelines. The refractive index increment (dn/dc) in which n is the refractive index and c is the concentration of the mixture of DDM and CHS in 20 mM Tris-HCl pH 8.0 buffer containing 300 mM NaCl, was determined offline using an Optilab T-rEX refractive index detector. Monomeric bovine serum albumin (#23210, Thermo Scientific, USA) was used as part of routine data quality control.
60 ml or more of 25 mM HEPES pH 7.5 buffer containing 150 mM NaCl were passed through the system at a flow rate of 0.5 mL/min to equilibrate the Superdex 200 10/300 GL column and establish stable baselines for light scattering and refractive index detectors. Purified αKlotho^ecto, FGER1c^ecto (wild type or mutant), and FGF23 (wild type or mutant) proteins were mixed at a molar ratio of 1:1:1 and concentrated to 12.5 μM. 50 μl of protein samples with a molar equivalent of a heparin hexasaccharide (#H006, Iduron, Manchester, U.K.) were injected onto the gel filtration column, and the column eluent was continuously monitored for 280 nm absorbance, laser light scattering, and refractive index. In a separate set of experiments, 50 μl of 1:1:1 FGF23-FGFR1c^ecto-αKlotho^ecto ternary complex at 12.5 μM concentration was mixed with heparin hexasaccharide at molar ratios of 1:0.25, 1:0.5, 1:1, or 1:2, and the mixtures were injected onto the gel filtration column. 50 μl of ternary complex without added heparin hexasaccharide were run as a control. In yet another set of experiments, αKlotho^ecto (wild type or mutant) and FGER1c^ecto were mixed at a molar ratio of 1:1, and 50 μl of concentrated protein mixtures were injected onto the gel filtration column. 50 μl of concentrated αKlotho^ecto (wild type or mutant) alone were run as a control in these experiments. […]

binding result [1]: binds
binding result [2]: binds
B1: FGF23^WT (human FGF23 Y25 to S205 with R176Q/R179Q, protease-resistant minimal protein) (ligand)
chain: YPNASPLLGSSWGGLIHLYTATARNSYHLQIHKNGHVDGAPHQTIYSALMIRSEDAGFVVITGVMSRRYLCMDFRGNIFGSHYFDPENCRFQHQTLENGYDVYHSPQYHFLVSLGRAKRAFLPGMNPPPYSQFLSRRNEIPLIHFNTPIPRQHTQSAEDDSERDPLNVLKPRARMTPAPAS
notes: also called wild-type FGF23; minimal FGF23
